Tests used:
Healthy Tissues: Breast = test: Immunohistochemistry (IHC) with biotinylated BARB4 on healthy tissue; type: binding, human; details: glandular, positive/negative
Experimental: (§1) Immunohistochemistry with human IgG on human tissue naturally results in high background staining. Accordingly, BARB4 was labeled with biotin to reduce background.
(§2) BARB4 antibody and an unrelated commercial IgG control (Chrompure IgG, Dianova) where labelled with “EZ-Link Maleimide-PEO Solid Phase Biotinylation Kit” from Pierce (Cat-# 21930) and Immunohistochemistry was initiated on different tumor tissue. Parrafin embedded tissue was first deparaffinized by treatment with Xylene 1 for 5 min, Xylene 2 for 5 min, followed by 100% Ethanol 1 for 5 min, 100% Ethanol 2 for 5 min, 70 ml Methanol+500 μl H2O2 for 7 min, 90% Ethanol 1 for 3 min, 90% Ethanol 2 for 3 min, 80% Ethanol 1 for 3 min, 80% Ethanol 2 for 3 min, 70% Ethanol 1 for 3 min, 70% Ethanol 2 for 3 min, and then washed three times with distilled H2O. (1 and 2 mean that the tissues were treated 2 times with the same alcohol, one after the another, in two different tanks.) Tissue was then heated in Citric acid, pH 5,5 in a water-bath at 99.9° C. for 20 min, placed in Tris/NaCl (Tris, 0.6 g/l and NaCl 8.1 g/l, pH 7.4) for 5 min, block with 0.5% BSA in PBS for 60 min, and then washed three times with Tris/NaCl (Tris, 0.6 g/l and NaCl 8.1 g/l, pH 7.4). Primary antibody (150 μl per microscope slide) was added, or a negative control biotinylated isotype matched control human antibody (Chrompure IgG, Dianova, Germany) or a positive controlanti-cytokeratin antibody, and incubated for 30 min in a humidified chamber at 37° C. Tissue was washed three times with Tris/NaCl (Tris, 0.6 g/l and NaCl 8.1 g/l, pH 7.4). Secondary antibody: (150 […]) was subsequently added and incubated for 30 min in a humidified chamber at room temperature (for biotinylated antibodies: NeurtrAvidin 1:100 in PBS), washed three times with Tris/NaCl (Tris, 0.6 g/l and NaCl 8.1 g/l, pH7.4), placed in PBS for 10 min. Tiusse was subsequently incubated with diaminobenzidine (0.05%)-hydrogen peroxide (0.02%) (150 μl per microscope slide) (Sigma, Taufkirchen, München, Germany) for 10 min, washed three times with H2O, washed once with distilled H2O, incubated with hematoxylin/eosin for 5 min, and placed under running tap water 10-15 min. Tissue was then washed again with distilled H2O, and the slides covered with Aquatex (Merck Bioscience).

Healthy Tissues: Colon = test: as above; type: binding, human; details: glandular, positive/negative
Experimental: as §1, §2

[1] = system: Healthy Tissues: Esophagus; test: as above; type: binding, human; details: epithelial, positive/negative
Experimental: as §1, §2

Healthy Tissues: Lung = test: as above; type: binding, human; details: glandular, alveolar, positive/negative
Experimental: as §1, §2

[2] = system: Healthy Tissues: Pancreas; test: as above; type: binding, human; details: glandular, positive/negative
Experimental: as §1, §2

Healthy Tissues: Stomach = test: as above; type: binding, human; details: glandular, positive/negative
Experimental: as §1, §2

[3] = system: human pancreas carcinoma cell-line BXPC-3; test: Immunofluorescence, endocytosis of conjugated BARB4; type: cell-based; details: 40 μg/ml conjugated antibody, 37° C., 30 minutes after binding
Experimental: Endocytosis was determined for BARB4 on human pancreas carcinoma cell-line BXPC-3. BARB4 antibody (purified) was conjugated with Fluorescent orange 548 reactive (Fluka, Buchs, Switzerland). Conjugated BARB4 antibody at a final concentration of 40 μg/ml was directly given to 1×10^6 cells and incubated for indicated times at 37° C. Cells were harvested, rinsed and resuspended in phosphate buffer saline pH 7,4 (PBS). 100 μl of each cell suspension was fixed on slides. Finally the slides were mounted with Fluorescent Mounting Medium (DakoCytomation, Carpinteria, USA) and analyzed by confocal microscopy. The data is illustrated in FIG. 4.

TAF 15 = test: Immunoprecipitation of cell extracts with BARB4 and Western blotting; type: binding, human; details: MKN cell extracts
Experimental: To further validate BARB4 target protein TAF 15, BARB4 and a commercial TAF 15 antibody (anti-human TAFII p68, Santa Cruz Biotechnology, sc-81121) were analyzed for binding to BxPC-3, HEK 293, A549 and HeLa cell lines. In brief, cells were trypsinized with cell dissociation solution (Sigma C5789), resuspended in complete medium (RPMI 1640, PAA, E15-039, 10% Fetal bovine serum, PAA, A15-151 and 1% Glutamine, PAA, M11-004) and set on 2×10^5/ml. After 30 minutes on ice, cells were dispersed at 1 ml per FACS-tube and washed once with ice-cold PBS by centrifugation with 500 g and 4° C. Staining was done with BARB4 (100 ug/ml) or the commercial TAF 15 (25 μg/ml) IgG antibodies, control IgGs (IgG lambda, or mouse IgG), or without antibody in 200 μl PBS. Cells were incubated with 25 μg/ml antibody in 100 μl for 30 minutes on ice, then washed with ice cold PBS and secondary antibody (anti mouse IgG-FITC, dianova 115-095-008) was applied at a dilution of 1:50 in 200 μl per tube. After another 30 minutes of incubation in the dark, cells were washed twice with PBS and analyzed by FACS. […] BARB4 target protein TAF 15 validation was then analyzed by immunoprecipitation of MKNcell extracts with BARB4 and subsequent Western blotting with either BARB4 or anti-TAF 15 antibodies (Biomol, A300-308A; or Aviva, ARP30111_T100). […]

B1: BARB4: human IgG antibody produced by hybridoma DSMZ Deposit No. DSM ACC2876; heavy chain SEQ ID NOs:1, 3, 5, 7, light chain SEQ ID NO:9 (antibody, V domains shown)
VH: QVQLVESGGGVVQPGRSLRLSCAASGFRFTTHGMHWVRQAPGKGLEWVAVISYNGRNKYYADYVNGRFTISRDDSRDTVFLQMNSLRPEDTAMYYCAKVRGDGYGDYGYFDYWGHGTLVSVSS
VL: QSALTQPRSVSGSPGQSVTISCTGTYNYVSWYQQHPGKAPKLMIFDVSRRSSGVPDRFSGSKSGNTASLTISGLQAEDEADYYCCSYGGTYLYVFGTGTTVTVLGQ
Healthy Tissues: Breast
  Barb 4 +/−: 0/2
Healthy Tissues: Colon
  Barb 4 +/−: 0/3
[1]
  Barb 4 +/−: 0/1
Healthy Tissues: Lung
  Barb 4 +/−: 0/3
[2]
  Barb 4 +/−: 0/2
Healthy Tissues: Stomach
  Barb 4 +/−: 0/3
[3]
  endocytosis of antibody by cells (immunofluorescence): endocytosis
TAF 15; FIG. 9B, assay conditions may not be optimized
  detection of TAF15 in the immunoprecipitate by Western staining with BARB4 antibody: did not appear to detect TAF15
TAF 15; FIGS. 9A and 9C
  immunoprecipitation of TAF 15, Western staining with anti-TAF 15 antibodies: able to immunoprecipiate TAF 15

Source: patent US20090291083A1, “BARB4 TARGET, ANTIBODY DESIGNATED BARB4, BARB4 RELATED ANTIBODIES, AND METHODS OF MAKING AND USING SAME” (PATRYS LIMITED, priority 2008, published 2009)
